Results published in the supplement of paper PMC9112550, “Optimization of the antimicrobial peptide Bac7 by deep mutational scanning” (BMC Biology, 2022).

tested on: Escherichia coli TOP10; test: shrunken log2 fold change of peptide-encoding DNA abundance (4.5 h post-induction vs induction); higher = less antimicrobial activity (less host growth inhibition); details: time post-induction: 4.5 h; library: site-saturation at positions 5, 18, 19, 20
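Also: peptides expressed intracellularly from a pBAD plasmid library in pooled LB shake-flask culture, induced with 0.3% L-arabinose, DNA abundance read by NGS, three biological replicates, DESeq2 with apeglm shrinkage.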

Sequence | shrunken log2 fold change
RRIRSRPPRLPRPRPRPPCNPRP | -0.21
RRIRSRPPRLPRPRPRPPDQPRP | 0.674
RRIRSRPPRLPRPRPRPPEEPRP | -0.0451
RRIRSRPPRLPRPRPRPPFTPRP | -0.00795
RRIRSRPPRLPRPRPRPPHHPRP | -0.0759
RRIRSRPPRLPRPRPRPPHQPRP | 0.27
RRIRSRPPRLPRPRPRPPKDPRP | -0.0903
RRIRSRPPRLPRPRPRPPKEPRP | 1.07
RRIRSRPPRLPRPRPRPPKFPRP | -0.479
RRIRSRPPRLPRPRPRPPKLPRP | -0.11
RRIRSRPPRLPRPRPRPPLSPRP | 0.125
RRIRSRPPRLPRPRPRPPMTPRP | 0.243
RRIRSRPPRLPRPRPRPPPAPRP | 1.04
RRIRSRPPRLPRPRPRPPPPPRP | 1.03
RRIRSRPPRLPRPRPRPPRFPRP | 0.378
RRIRSRPPRLPRPRPRPPRRPRP | 0.701
RRIRSRPPRLPRPRPRPPSAPRP | 0.646
RRIRSRPPRLPRPRPRPPSKPRP | 0.0454
RRIRSRPPRLPRPRPRPPTCPRP | 0.155
RRIRSRPPRLPRPRPRPPTTPRP | 0.391
RRIRSRPPRLPRPRPRPPYDPRP | -0.397
RRIRSRPPRLPRPRPRPQAMPRP | 0.182

Sequence | shrunken log2 fold change
RRIRSRPPRLPRPRPRPQAQPRP | -0.121
RRIRSRPPRLPRPRPRPQCLPRP | -0.208
RRIRSRPPRLPRPRPRPQFCPRP | -0.16
RRIRSRPPRLPRPRPRPQFIPRP | -1.79
RRIRSRPPRLPRPRPRPQHFPRP | -0.00646
RRIRSRPPRLPRPRPRPQIIPRP | -0.226
RRIRSRPPRLPRPRPRPQIQPRP | -0.118
RRIRSRPPRLPRPRPRPQKHPRP | -0.106
RRIRSRPPRLPRPRPRPQKTPRP | 0.0161
RRIRSRPPRLPRPRPRPQLIPRP | -0.0943
RRIRSRPPRLPRPRPRPQMSPRP | -0.0374
RRIRSRPPRLPRPRPRPQPYPRP | -0.159
RRIRSRPPRLPRPRPRPQRSPRP | 0.316
RRIRSRPPRLPRPRPRPQSAPRP | 0.108
RRIRSRPPRLPRPRPRPQTDPRP | -0.0826
RRIRSRPPRLPRPRPRPQTKPRP | -0.0915
RRIRSRPPRLPRPRPRPQTPPRP | 0.6
RRIRSRPPRLPRPRPRPQWDPRP | -0.235
RRIRSRPPRLPRPRPRPQWGPRP | -0.0633
RRIRSRPPRLPRPRPRPQYMPRP | -0.695
RRIRSRPPRLPRPRPRPREKPRP | 0.0145
RRIRSRPPRLPRPRPRPRFHPRP | -0.302

Sequence | shrunken log2 fold change
RRIRSRPPRLPRPRPRPRGAPRP | 0.737
RRIRSRPPRLPRPRPRPRILPRP | -0.34
RRIRSRPPRLPRPRPRPRITPRP | -0.421
RRIRSRPPRLPRPRPRPRKAPRP | 0.0188
RRIRSRPPRLPRPRPRPRKEPRP | 0.131
RRIRSRPPRLPRPRPRPRKFPRP | 0.015
RRIRSRPPRLPRPRPRPRLMPRP | 0.198
RRIRSRPPRLPRPRPRPRLNPRP | 0.15
RRIRSRPPRLPRPRPRPRMFPRP | -0.121
RRIRSRPPRLPRPRPRPRNVPRP | 0.0864
RRIRSRPPRLPRPRPRPRPYPRP | -0.244
RRIRSRPPRLPRPRPRPRQCPRP | 0.159
RRIRSRPPRLPRPRPRPRQPPRP | 0.268
RRIRSRPPRLPRPRPRPRQTPRP | 0.0651
RRIRSRPPRLPRPRPRPRQWPRP | 0.69
RRIRSRPPRLPRPRPRPRRFPRP | -0.0186
RRIRSRPPRLPRPRPRPRRYPRP | -0.0572
RRIRSRPPRLPRPRPRPRTRPRP | 0.512
RRIRSRPPRLPRPRPRPRVTPRP | 0.169
RRIRSRPPRLPRPRPRPRWMPRP | -0.206
RRIRSRPPRLPRPRPRPRYQPRP | -0.145
RRIRSRPPRLPRPRPRPSDRPRP | -0.254

Sequence | shrunken log2 fold change
RRIRSRPPRLPRPRPRPSEKPRP | 0.029
RRIRSRPPRLPRPRPRPSFPPRP | -0.557
RRIRSRPPRLPRPRPRPSFTPRP | -0.524
RRIRSRPPRLPRPRPRPSGLPRP | 0.177
RRIRSRPPRLPRPRPRPSHDPRP | -0.308
RRIRSRPPRLPRPRPRPSHLPRP | -0.265
RRIRSRPPRLPRPRPRPSKLPRP | -0.398
RRIRSRPPRLPRPRPRPSKRPRP | -0.126
RRIRSRPPRLPRPRPRPSKTPRP | -0.159
RRIRSRPPRLPRPRPRPSLQPRP | -0.606
RRIRSRPPRLPRPRPRPSMEPRP | -0.0673
RRIRSRPPRLPRPRPRPSNAPRP | -0.276
RRIRSRPPRLPRPRPRPSNMPRP | -1.05
RRIRSRPPRLPRPRPRPSNWPRP | -0.237
RRIRSRPPRLPRPRPRPSPKPRP | 0.0583
RRIRSRPPRLPRPRPRPSPPPRP | 0.154
RRIRSRPPRLPRPRPRPSQQPRP | 0.0577
RRIRSRPPRLPRPRPRPSRLPRP | -0.0299
RRIRSRPPRLPRPRPRPSSLPRP | -0.255
RRIRSRPPRLPRPRPRPSTMPRP | -0.455
RRIRSRPPRLPRPRPRPSTPPRP | -0.0374
RRIRSRPPRLPRPRPRPSVNPRP | -0.119

Sequence | shrunken log2 fold change
RRIRSRPPRLPRPRPRPSVRPRP | -0.0911
RRIRSRPPRLPRPRPRPSWGPRP | -0.114
RRIRSRPPRLPRPRPRPSWIPRP | -0.363
RRIRSRPPRLPRPRPRPSWPPRP | -0.135
RRIRSRPPRLPRPRPRPSWVPRP | 0.0183
RRIRSRPPRLPRPRPRPSWWPRP | 0.0841
RRIRSRPPRLPRPRPRPSYHPRP | -0.836
RRIRSRPPRLPRPRPRPTDEPRP | -0.148
RRIRSRPPRLPRPRPRPTFFPRP | -0.0698
RRIRSRPPRLPRPRPRPTFHPRP | -0.192
RRIRSRPPRLPRPRPRPTHRPRP | 0.0995
RRIRSRPPRLPRPRPRPTKDPRP | -0.105
RRIRSRPPRLPRPRPRPTKRPRP | 0.294
RRIRSRPPRLPRPRPRPTLCPRP | 0.0788
RRIRSRPPRLPRPRPRPTLSPRP | 0.0887
RRIRSRPPRLPRPRPRPTMIPRP | -0.163
RRIRSRPPRLPRPRPRPTMQPRP | -0.106
RRIRSRPPRLPRPRPRPTNKPRP | -0.328
RRIRSRPPRLPRPRPRPTNRPRP | -0.362
RRIRSRPPRLPRPRPRPTPEPRP | 0.866
RRIRSRPPRLPRPRPRPTSFPRP | -0.189
